Experimental data: the Human Domainome abundance scans (Beltran et al. 2025)
± gives the uncertainty stated by the source.

B1: Advillin, residues 785 to 819; numbered along this chain, O75366 (parent)
chain: LSEQDFVSVFGITRGQFAALPGWKQLQMKKEKGLF

Variants of: B1
Experiment: abundance fitness (aPCA) (normalised: wild type 0, dead -1); higher = more abundant; growth selection in yeast, the domain comes from the species named
Conditions: Homo sapiens

In order of rising abundance fitness:
1. F35K  -1 ± 0.38
2. E31Y  -0.746 ± 0.22
3. E31W  -0.709 ± 0.14
4. E31P  -0.645 ± 0.096
5. E31T  -0.645 ± 0.13
6. K32D  -0.624 ± 0.14
7. E31H  -0.563 ± 0.5
8. G33W  -0.541 ± 0.08
9. K32I  -0.536 ± 0.32
10. G33V  -0.525 ± 0.11
11. K29P  -0.497 ± 0.11
12. K32F  -0.48 ± 0.47
13. F35N  -0.478 ± 0.43
14. E31R  -0.464 ± 0.067
15. K30P  -0.453 ± 0.069
16. E31M  -0.453 ± 0.088
17. E31C  -0.443 ± 0.088
18. E31I  -0.421 ± 0.21
19. E31L  -0.42 ± 0.064
20. G33N  -0.401 ± 0.1
21. E31V  -0.367 ± 0.12
22. K32W  -0.365 ± 0.092
23. K30F  -0.345 ± 0.12
24. F35A  -0.334 ± 0.29
25. G33K  -0.325 ± 0.091
26. K30C  -0.321 ± 0.077
27. G33T  -0.308 ± 0.098
28. G33L  -0.305 ± 0.083
29. K32Y  -0.298 ± 0.098
30. E31G  -0.283 ± 0.055
31. E31K  -0.271 ± 0.21
32. K30I  -0.266 ± 0.17
33. G33R  -0.235 ± 0.071
34. K29Y  -0.221 ± 0.21
35. K30T  -0.215 ± 0.096
36. G33A  -0.195 ± 0.059
37. K30L  -0.192 ± 0.058
38. K32T  -0.179 ± 0.076
39. K32E  -0.175 ± 0.081
40. E31A  -0.173 ± 0.059
41. K30G  -0.159 ± 0.055
42. K32G  -0.156 ± 0.07
43. K32P  -0.132 ± 0.14
44. F35W  -0.13 ± 0.17
45. L34V  -0.122 ± 0.069
46. K32Q  -0.122 ± 0.072
47. K30H  -0.121 ± 0.097
48. K30S  -0.114 ± 0.063
49. L34R  -0.112 ± 0.058
50. G33S  -0.108 ± 0.074
51. K32V  -0.103 ± 0.073
52. K29N  -0.09 ± 0.081
53. K30V  -0.076 ± 0.063
54. K29W  -0.075 ± 0.07
55. F35Q  -0.071 ± 0.3
56. K32L  -0.047 ± 0.087
57. K29T  -0.043 ± 0.06
58. G33E  -0.032 ± 0.078
59. K29R  -0.023 ± 0.048
60. K29S  -0.017 ± 0.068
61. L34K  -0.003 ± 0.064
62. K29V  0 ± 0.077
63. K32S  0.015 ± 0.08
64. K32A  0.017 ± 0.066
65. L34W  0.019 ± 0.063
66. E31D  0.02 ± 0.1
67. K29Q  0.026 ± 0.07
68. K30Q  0.026 ± 0.078
69. L34N  0.027 ± 0.088
70. L34M  0.029 ± 0.084
71. L34P  0.033 ± 0.083
72. K30R  0.033 ± 0.058
73. K30N  0.04 ± 0.33
74. L34H  0.042 ± 0.1
75. K30M  0.051 ± 0.089
76. F35P  0.054 ± 0.084
77. K32R  0.06 ± 0.052
78. K32M  0.072 ± 0.1
79. K30A  0.078 ± 0.055
80. L34Q  0.098 ± 0.078
81. K32N  0.122 ± 0.13
82. F35R  0.126 ± 0.11
83. L34A  0.128 ± 0.061
84. F35E  0.129 ± 0.094
85. F35V  0.141 ± 0.097
86. L34T  0.143 ± 0.064
87. L34G  0.147 ± 0.06
88. K30E  0.147 ± 0.082
89. L34S  0.177 ± 0.069
90. F35C  0.179 ± 0.086
91. G33Q  0.186 ± 0.24
92. G33P  0.191 ± 0.14
93. F35L  0.197 ± 0.14
94. L34E  0.266 ± 0.08
95. L34D  0.284 ± 0.14
96. F35I  0.312 ± 0.2
97. L34F  0.321 ± 0.12
98. L34C  0.355 ± 0.11
99. F35S  0.355 ± 0.18
